In assay [1] the target is C-C chemokine receptor type 5 (CCR5) with a C-terminal 1D4 epitope tag (human) (UniProt P51681).
Assay [2] has the same target. The source holds these as a separate data set.

Chain of UniProt P51681 (P51681 whole entry): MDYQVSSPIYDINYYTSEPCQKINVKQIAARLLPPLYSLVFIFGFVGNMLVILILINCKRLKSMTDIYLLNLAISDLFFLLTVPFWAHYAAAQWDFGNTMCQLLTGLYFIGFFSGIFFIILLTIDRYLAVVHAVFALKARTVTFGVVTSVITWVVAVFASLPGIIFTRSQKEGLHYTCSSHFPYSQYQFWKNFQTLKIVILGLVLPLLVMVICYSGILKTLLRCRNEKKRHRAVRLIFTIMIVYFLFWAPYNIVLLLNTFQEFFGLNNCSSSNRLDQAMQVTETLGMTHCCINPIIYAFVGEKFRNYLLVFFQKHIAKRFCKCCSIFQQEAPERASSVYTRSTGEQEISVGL
Chain of PSC-RANTES (P13501 24-91): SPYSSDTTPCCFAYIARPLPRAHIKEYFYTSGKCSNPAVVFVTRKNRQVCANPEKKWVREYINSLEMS

Consider “regulated on activation, normal T cell expressed and secreted (RANTES) (from UniProt P13501 24-91) (ligand)”, for which the increase in intracellular Ca2+ (FLIPR Calcium 6 dye, mean RFU) of CCR5-transfected HEK293T cells on injection of 100 nM RANTES; buffer pre-injection, no inhibitor in assay [1] was determined as 3830 RFU.

On to “PSC-RANTES (from UniProt P13501 24-91) (ligand)”, for which the increase in intracellular Ca2+ (FLIPR Calcium 6 dye, mean RFU) of CCR5-transfected HEK293T cells on injection of 100 nM PSC-RANTES; no ATP pre-stimulation, no inhibitor in assay [2] was found to be 9900 RFU.
